# “And” between values parts separate entries of the source, which are not always exact repeats. Equal values may be shown once.
# How the values were obtained:
# [1] = biological target: Human IgG1 Fc bearing the F241A mutation, produced in CHO-K1 cells coexpressing hST6GAL1 and hB4GALT1 (human); assay: SPR + BLI; Fcs immobilised on chips or captured on biosensors; human or mouse FcRn at 1,600 nM to 50 nM in 2-fold dilutions, pH 6.0; Biacore 3000 and Octet K2 both named
# [2] = biological target: Wild-type human IgG1 Fc (human); assay: as above
# [3] = biological target: Human IgG1 Fc bearing the Abdeg mutations (efgartigimod) (human); assay: as above
# [4] = biological target: Human IgG1 Fc bearing the Abdeg mutations (Fc^Abdeg, efgartigimod) (human); assay: SPR + BLI; Fc immobilised on chips / captured on biosensors; human or mouse FcRn at 1,600 nM to 50 nM in 2-fold dilutions, pH 6.0; Biacore 3000 and Octet K2 are both named
# [5] = biological target: Specific ICAM-3–grabbing non-integrin-related-1 (SIGN-R1; CD209b) (UniProt Q8CJ91); assay: flow cytometry on cells (SIGN-R1+/+ murine BMDMs); details: type I FcγRs blocked; PBS control = 1; read off a plot
# Sequence of Specific ICAM-3–grabbing non-integrin-related-1 (SIGN-R1; CD209b) (Q8CJ91 whole entry): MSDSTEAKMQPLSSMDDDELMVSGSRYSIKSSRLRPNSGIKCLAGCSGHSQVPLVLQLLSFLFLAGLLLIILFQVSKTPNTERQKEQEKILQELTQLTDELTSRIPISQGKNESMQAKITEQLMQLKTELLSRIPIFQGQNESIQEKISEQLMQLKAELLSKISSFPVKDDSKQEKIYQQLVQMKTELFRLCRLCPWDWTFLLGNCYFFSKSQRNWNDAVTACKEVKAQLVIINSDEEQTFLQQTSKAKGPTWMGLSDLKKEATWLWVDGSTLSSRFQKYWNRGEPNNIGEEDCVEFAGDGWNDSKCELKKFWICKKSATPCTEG
Kd [1],Kd [3],fold lower KD than that of Fc^F241A/B4ST6 [4],Substance,further results
50.8 nM and 77.5 nM and 86.7 nM,0.27 nM and 0.28 nM and 0.26 nM,–,Mouse neonatal Fc receptor (FcRn) (from UniProt Q61559 22-297; P01887 21-119),Kd [2]: 51.6 nM and 73.2 nM and 85.8 nM
131 nM and 260 nM and 208 nM,6 nM,–,Human neonatal Fc receptor (FcRn) (from UniProt P55899 24-297; P61769 21-119),–
–,–,267 fold,Mouse neonatal Fc receptor (mFcRn) (from UniProt Q61559 22-297),fold enhanced affinity compared with human FcRn [4]: > 10 fold
–,–,–,Wild-type human IgG1 Fc (Fc^WT) F241A,response (fold change in MFI (normalized to PBS)) [5]: 1.6
–,–,39 fold,Human neonatal Fc receptor (hFcRn) (from UniProt P55899 24-297),fold enhanced affinity compared with Fc^F241A and Fc^WT [4]: 96 fold
